Assay results as given in patent US20170022281A1 (AbbVie / Abbott, published 2017).

Legend:
[1] = molecular target: T1, murine PRLR (Biacore antigen) (murine, UniProt Q08501 20-229, limits assumed); assay: SPR Biacore
T1 construct: also called muPRLR
T1 sequence (looked up): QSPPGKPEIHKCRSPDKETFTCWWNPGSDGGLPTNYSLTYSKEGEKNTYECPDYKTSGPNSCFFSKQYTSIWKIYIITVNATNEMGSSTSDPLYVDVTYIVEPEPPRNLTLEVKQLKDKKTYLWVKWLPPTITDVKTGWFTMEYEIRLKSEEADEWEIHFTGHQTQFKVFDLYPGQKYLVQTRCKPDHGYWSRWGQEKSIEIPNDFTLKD
Summary of the method: (§1)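 Association rate, dissociation rate and dissociation constant were measured by surface plasmon resonance on a Biacore instrument. PRLR antigen was tested at 600 nM, 66.67 nM and 7.41 nM, a 3-point, 9-fold dilution series. Constants came from a 1:1 binding model fit (local Rmax, mass-transport term included) in Biacore T200 Evaluation Software.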

[2] = molecular target: T2, human PRLR (Biacore antigen) (human, UniProt P16471 25-234, limits assumed); assay: SPR Biacore
T2 construct: The construct injected over captured antibody is not described (a soluble form is likely); also called huPRLR
T2 sequence: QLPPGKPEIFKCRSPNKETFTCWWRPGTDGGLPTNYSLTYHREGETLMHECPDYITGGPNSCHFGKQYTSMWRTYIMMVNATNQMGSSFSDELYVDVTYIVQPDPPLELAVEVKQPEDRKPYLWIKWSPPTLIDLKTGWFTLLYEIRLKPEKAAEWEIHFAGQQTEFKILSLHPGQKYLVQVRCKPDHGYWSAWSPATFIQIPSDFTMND
Summary of the method: as §1

[3] = molecular target: T3, cyno PRLR (Biacore antigen) (cyno, UniProt A0A2K5WXK1 25-234); assay: SPR Biacore
T3 construct: also called cyPRLR
T3 sequence: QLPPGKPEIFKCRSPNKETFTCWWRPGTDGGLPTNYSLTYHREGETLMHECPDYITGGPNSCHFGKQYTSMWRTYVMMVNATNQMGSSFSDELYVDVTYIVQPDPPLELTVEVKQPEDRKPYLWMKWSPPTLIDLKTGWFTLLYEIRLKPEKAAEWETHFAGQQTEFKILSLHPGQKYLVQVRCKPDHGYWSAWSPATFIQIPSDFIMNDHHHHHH
Summary of the method: as §1

[4] = molecular target: T2, human PRLR (Biacore antigen); assay: SPR simultaneous binding; PRLR held by surface mAb Ab21
Description: (§2) Running buffer was HBS-EP+ (10 mM Hepes, pH7.4, 150 mM NaCl, 3 mM EDTA, 0.05% surfactant). Assay was performed at 12° C. using Biacore T200 and CM5 sensor chips with anti-human IgG (Pierce) amine-coupled in all 4 flow cells to ˜2000 RU.
(§3) Separate test mAbs were captured in flowcells 2, 3 & 4 (flowcell 1 was reference, no test mAb). All 4 flowcells were then blocked by injection with isotype control mAb at 50 ug/ml. All 4 flowcells were then injected with antigen or buffer only (buffer only is for double referencing, done for each mAb pair individually). All 4 flowcells were then injected with 2nd test mAb at 10 ug/ml. All 4 flowcells were then regenerated with glycine, pH1.5.

[5] = molecular target: T4, mouse PRLR on Baf3-mPRLR cells (mouse, UniProt Q08501 20-608); assay: cell-based or functional assay
T4 sequence (looked up): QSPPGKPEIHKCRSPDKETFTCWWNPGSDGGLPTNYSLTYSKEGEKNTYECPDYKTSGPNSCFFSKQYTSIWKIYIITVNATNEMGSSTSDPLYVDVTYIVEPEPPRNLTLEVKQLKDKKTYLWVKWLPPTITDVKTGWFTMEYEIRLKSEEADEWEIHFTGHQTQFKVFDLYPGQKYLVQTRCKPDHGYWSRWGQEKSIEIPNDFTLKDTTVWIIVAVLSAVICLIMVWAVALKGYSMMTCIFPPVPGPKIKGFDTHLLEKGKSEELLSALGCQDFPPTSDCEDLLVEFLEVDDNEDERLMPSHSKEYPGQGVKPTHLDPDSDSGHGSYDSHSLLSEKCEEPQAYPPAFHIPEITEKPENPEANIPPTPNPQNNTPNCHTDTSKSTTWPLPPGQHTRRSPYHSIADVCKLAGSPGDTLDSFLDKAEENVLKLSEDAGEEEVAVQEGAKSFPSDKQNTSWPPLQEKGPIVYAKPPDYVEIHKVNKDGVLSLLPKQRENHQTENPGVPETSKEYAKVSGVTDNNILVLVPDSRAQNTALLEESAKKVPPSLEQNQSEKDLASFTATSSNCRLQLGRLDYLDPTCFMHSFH

[6] = molecular target: T2, human PRLR (Biacore antigen); assay: SPR simultaneous binding; PRLR held by surface mAb Ab19
Description: as §2, §3

[7] = molecular target: T2, human PRLR (Biacore antigen); assay: SPR simultaneous binding; PRLR held by surface mAb chAb6
Description: as §2, §3

[8] = molecular target: T2, human PRLR (Biacore antigen); assay: SPR simultaneous binding; PRLR held by surface mAb Ab39
Description: as §2, §3

[9] = molecular target: T2, human PRLR (Biacore antigen); assay: SPR simultaneous binding; PRLR held by surface mAb Ab30
Description: as §2, §3

B1: Ab39 (antibody, human IgG1, kappa, V domains shown)
VH: EVQLVQSGAEVKKPGSSVKVSCKASGYTFTSYWIHWVRQAPGQGLEWIGEIDPSDSYTNYNQKFKGRATLTVDKSSSTAYMELSSLRSEDTAVYYCARSFFTNWFAYWGQGTLVTVSS
VL: DVVMTQTPLSLSVTPGQPASISCRSSQSLVHSNGNTYLHWYLQKPGQSPQLLIYKVSNRFSGVPDRFSGSGSGTDFTLKISRVEAEDVGVYFCSQSTHVPFTFGGGTKVEIKR
notes: humanized from Ab7; G1; also called Ab4 HC.1a and Ab4 LC.1a
Kd [1]: 742 nM | koff [1]: 0.0427 s⁻¹ | kon [1]: 57600 M⁻¹ s⁻¹ | Kd [2]: 4.25 nM | koff [2]: 0.000715 s⁻¹ | kon [2]: 168000 M⁻¹ s⁻¹ | Kd [3]: 4.01 nM | koff [3]: 0.000613 s⁻¹ | kon [3]: 153000 M⁻¹ s⁻¹ | solution mAb binding, % of PRLR binding [4]: -1% | Baf3-mPRLR proliferation IC50 [5]: > 30 µg/mL | solution mAb binding, % of PRLR binding [6]: -1% | solution mAb binding, % of PRLR binding [7]: 0% | solution mAb binding, % of PRLR binding [8]: -2% | solution mAb binding, % of PRLR binding [9]: 0%

B2: Ab49 (antibody, human IgG1, kappa, V domains shown)
VH: EVQLVQSGAEVKKPGASVKVSCKASGYTFTDYNIHWVRQAPGQGLEWIGYIYPNNDGTGYNQKFKSRATLTVDNSTSTAYMELRSLRSDDTAVYYCARGDGNYVGDMDYWGQGTTVTVSS
VL: DIQMTQSPSSLSASVGDRVTITCRASENIYSYLAWYQQKPGKAPKLLVYNAKTLAEGVPSRFSGSGSGTDFTLTISSLQPEDFATYYCQHHYATPFTFGQGTKLEIKR
notes: humanized from Ab8; G1; also called Ab3 HC.1a and Ab3 LC.1b
Kd [2]: 0.214 nM | koff [2]: 0.00012 s⁻¹ | kon [2]: 558000 M⁻¹ s⁻¹ | solution mAb binding, % of PRLR binding [4]: -1% | Baf3-mPRLR proliferation IC50 [5]: > 30 µg/mL | solution mAb binding, % of PRLR binding [6]: -1% | solution mAb binding, % of PRLR binding [7]: -2% | solution mAb binding, % of PRLR binding [8]: -2% | solution mAb binding, % of PRLR binding [9]: -1%

B3: Ab19 (antibody, human IgG1, kappa, V domains shown)
VH: EVQLVQSGAEVKKPGSSVKVSCKASGYTFTTYWMHWVRQAPGQGLEWIGEIDPSDSYSNYNQKFKDRATLTVDKSTSTAYMELSSLRSEDTAVYYCARNGGLGPAWFSYWGQGTLVTVSS
VL: DIQMTQSPSSVSASVGDRVTITCKASQYVGTAVAWYQQKPGKSPKLLIYSASNRYTGVPSRFSDSGSGTDFTLTISSLQPEDFATYFCQQYSSYPWTFGGGTKVEIKR
notes: humanized from Ab6; G1; also called Ab1 HC.1a and Ab1 LC.1a
Kd [2]: 0.409 nM | koff [2]: 0.000403 s⁻¹ | kon [2]: 985000 M⁻¹ s⁻¹ | Kd [3]: 0.691 nM | koff [3]: 0.000728 s⁻¹ | kon [3]: 1.05e+06 M⁻¹ s⁻¹ | solution mAb binding, % of PRLR binding [4]: -1% | Baf3-mPRLR proliferation IC50 [5]: > 30 µg/mL | solution mAb binding, % of PRLR binding [6]: -1% | solution mAb binding, % of PRLR binding [7]: 0% | solution mAb binding, % of PRLR binding [8]: -2% | solution mAb binding, % of PRLR binding [9]: -1%

B4: Ab21 (antibody, human IgG1, kappa, V domains shown)
VH: EVQLVQSGAEVKKPGSSVKVSCKASGYTFTTYWMHWVRQAPGQGLEWIGEIDPSDSYSNYNQKFKDRATLTVDKSTSTAYMELSSLRSEDTAVYYCARNGGLGPAWFSYWGQGTLVTVSS
VL: EIVMTQSPATLSVSPGERATLSCKASQYVGTAVAWYQQKPGQSPRLLIYSASNRYTGVPARFSDSGSGTEFTLTISSLQSEDFAVYFCQQYSSYPWTFGGGTKVEIKR
notes: humanized from Ab6; G1; also called Ab1 HC.1a and Ab1 LC.2a
Kd [2]: 0.554 nM | koff [2]: 0.000586 s⁻¹ | kon [2]: 1.06e+06 M⁻¹ s⁻¹ | solution mAb binding, % of PRLR binding [4]: -1% | Baf3-mPRLR proliferation IC50 [5]: > 30 µg/mL | solution mAb binding, % of PRLR binding [6]: -1% | solution mAb binding, % of PRLR binding [7]: -1% | solution mAb binding, % of PRLR binding [8]: -2% | solution mAb binding, % of PRLR binding [9]: -1%

B5: chAb8 (antibody, human IgG1, kappa, V domains shown)
VH: EVQLQQSGPELVKPGASVKISCKASGYTFTDYNIHWVKQSHGKSLEWIGYIYPNNDGTGYNQKFKSKATLTVDNSSSTAYMEVRSLTSEDSAVYYCARGDGNYVGDMDYWGQGTSVTVSS
VL: DIQMTQSPASLSASVGETVTITCRASENIYSYLAWYQQKQGKPPQLLVYNAKTLAEGVPSRFSGGGSGTQFSLKINSLQPEDFGSYYCQHHYATPFTFGSGTKLEIKT
notes: chimeric, murine variable and human G1/kappa constant regions
Kd [1]: 291 nM | koff [1]: 0.0538 s⁻¹ | kon [1]: 185000 M⁻¹ s⁻¹ | Kd [2]: 0.183 nM | koff [2]: 9.1e-05 s⁻¹ | kon [2]: 496000 M⁻¹ s⁻¹ | Kd [3]: 3.44 nM | koff [3]: 0.00177 s⁻¹ | kon [3]: 514000 M⁻¹ s⁻¹ | solution mAb binding, % of PRLR binding [4]: -1% | solution mAb binding, % of PRLR binding [6]: -1% | solution mAb binding, % of PRLR binding [7]: -1% | solution mAb binding, % of PRLR binding [8]: -2% | solution mAb binding, % of PRLR binding [9]: -1%
